This note sets out measurements from patent US20020115606A1 (MYRIAD GENETICS, published 2002).

T1: PN7740 amino acids 27-322 (yeast; human, UniProt P04386 768-881)
T1 construct: also called novel phosphatase
T1 sequence: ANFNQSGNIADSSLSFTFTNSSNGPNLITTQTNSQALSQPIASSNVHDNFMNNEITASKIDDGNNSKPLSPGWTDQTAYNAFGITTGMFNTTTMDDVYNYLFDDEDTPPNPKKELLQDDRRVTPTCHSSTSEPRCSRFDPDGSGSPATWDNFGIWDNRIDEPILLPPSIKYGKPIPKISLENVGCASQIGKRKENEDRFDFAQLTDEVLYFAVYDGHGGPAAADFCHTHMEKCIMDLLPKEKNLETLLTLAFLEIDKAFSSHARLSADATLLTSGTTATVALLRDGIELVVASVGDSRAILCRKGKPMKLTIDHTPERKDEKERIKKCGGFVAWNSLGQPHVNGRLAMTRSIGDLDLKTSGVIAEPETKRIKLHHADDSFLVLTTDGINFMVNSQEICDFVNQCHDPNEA

B1: Fe65 amino acids 360-552 (first phosphotyrosine binding domain, PTB) (other, UniProt P04386 1-147, looked up)
chain: MKLLSSIEQACDICRLKKLKCSKEKPKCAKCLKNNWECRYSPKTKRSPLTRAHLTEVESRLERLEQLFLLIFPREDLDMILKMDSLQDIKALLTGLFVQDNVNKDAVTDRLASVETDMPLTLRQHRISATSSSEESSNKGQRQLTVSPRNTNPGIKCFAVRSLGWVEMTEEELAPGRSSVAVNNCIRQLSYHKNNLHDPMSGGWGEGKDLLLQLEDETLKLVEPQSQALLHAQPIISIRVWGVGRDSGRERDFAYVARDKLTQMLKCHVFRCEAPAKNIATSLHEICSKIMAERRNARCLVNGLSLDHSKLVDVPFQVEFPAPKNELVQKFQVYYLGNVP
B2: BAT3 (HLA-B associated transcript) amino acids 740-1040 (other, UniProt P04386 1-147, looked up)
chain: MKLLSSIEQACDICRLKKLKCSKEKPKCAKCLKNNWECRYSPKTKRSPLTRAHLTEVESRLERLEQLFLLIFPREDLDMILKMDSLQDIKALLTGLFVQDNVNKDAVTDRLASVETDMPLTLRQHRISATSSSEESSNKGQRQLTVSFEPGADGALGFFGALLSLLCQNFSMVDVVMLLHGHFQPLQRLQPQLRSFFHQHYLGGQEPTPSNIRMATHTLITGLEEYVRESFSLVQVQPGVDIIRTNLEFLQEQFNSIAAHVLHCTDSGFGARLLELCNQGLFECLALNLHCLGGQQMELAAVINGRIRRMSRGVNPSLVSWLTTMMGLRLQVVLEHMPVGPDAILRYVRRVGDPPQPLPEEPMEVQGAERASPEPQRENASPAPGTTAEEAMSRGPPPAPEGGSRDEQDGASAETEPWAAAVPPEWVPIIQQDIQSQRKVKPQPPLSD
B3: glutathione-S-transferase M3 (GST trans. M3) amino acids 15-226 (other, yeast;human, UniProt P04386 768-881, looked up, not shown: small tags and cut ends)
chain: ANFNQSGNIADSSLSFTFTNSSNGPNLITTQTNSQALSQPIASSNVHDNFMNNEITASKIDDGNNSKPLSPGWTDQTAYNAFGITTGMFNTTTMDDVYNYLFDDEDTPPNPKKERGLAHAIRLLLEFTDTSYEEKRYTCGEAPDYDRSQWLDVKFKLDLDFPNLPYLLDGKNKITQSNAILRYIARKHNMCGETEEEKIRVDIIENQVMDFRTQLIRLCYSSDHEKLKPQYLEELPGQLKQFSMFLGKFSWFAGEKLTFVDFLTYDILDQNRIFDPKCLDEFPNLKAFMCRFEALEKIAAYLQSDQFCKMPINNKMAQWGNKPVC
B4: Mint2 amino acids 1-210 (other, UniProt P04386 1-147, looked up)
chain: MKLLSSIEQACDICRLKKLKCSKEKPKCAKCLKNNWECRYSPKTKRSPLTRAHLTEVESRLERLEQLFLLIFPREDLDMILKMDSLQDIKALLTGLFVQDNVNKDAVTDRLASVETDMPLTLRQHRISATSSSEESSNKGQRQLTVSMAHRKLESVGSGMLDHRVRPGPVPHSQEPESEDMELPLEGYVPEGLELAALRPESPAPEEQECHNHSPDGDSSSDYVNNTSEEEDYDEGLPEEEEGITYYIRYCPEDDSYLEGMDCNGEEYLAHSAHPVDTDECQEAVEEWTDSAGPHPHGHEAEGSQDYPDGQLPIPEDEPSVLEAHDQEEDGHYCASKEGYQDYYPEEANGNTGASPY
notes: also called X11 beta
B5: Presenilin 2 (PS2) amino acids 1-97 (other, UniProt P04386 1-147, looked up)
chain: MKLLSSIEQACDICRLKKLKCSKEKPKCAKCLKNNWECRYSPKTKRSPLTRAHLTEVESRLERLEQLFLLIFPREDLDMILKMDSLQDIKALLTGLFVQDNVNKDAVTDRLASVETDMPLTLRQHRISATSSSEESSNKGQRQLTVSMLTFMASDSEEEVCDERTSLMSAESPTPRSCQEGRQGPEDGENTAQWRSQENEEDGEEDPDRYVCSGVPGRPPGLEEELTLKYGAKHVIMLFVPVTL
notes: also called Presinilin 2
B6: SUR1, type-1 sulfonylurea receptor, amino acids 121-270 (other, yeast;human, UniProt P04386 768-881, looked up, not shown: small tags and cut ends)
chain: ANFNQSGNIADSSLSFTFTNSSNGPNLITTQTNSQALSQPIASSNVHDNFMNNEITASKIDDGNNSKPLSPGWTDQTAYNAFGITTGMFNTTTMDDVYNYLFDDEDTPPNPKKEVVYYHNIETSNFPKLLIALLVYWTLAFITKTIKFVKFLDHAIGFSQLRFCLTGLLVILYGMLLLVEVNVIRVRRYIFFKTPREVKPPEDLQDLGVRFLQPFVNLLSKGTYWWMNAFIKTAHKKPIDLRAIGKLPIAMRALTNYQRLCEAF
B7: casein kinase II (CK2) amino acids 264-351 (other, yeast;human, UniProt P04386 768-881, looked up, not shown: small tags and cut ends)
chain: ANFNQSGNIADSSLSFTFTNSSNGPNLITTQTNSQALSQPIASSNVHDNFMNNEITASKIDDGNNSKPLSPGWTDQTAYNAFGITTGMFNTTTMDDVYNYLFDDEDTPPNPKKEIDLDPHFNDILGQHSRKRWENFIHSENRHLVSPEALDLLDKLLRYDHQQRLTAKEAMEHPYFYPVVKEQSQPCADNAVLSSGLTAAR
B8: KIAA0427 amino acids 364-589 (other, yeast;human, UniProt P04386 768-881, looked up, not shown: small tags and cut ends)
chain: ANFNQSGNIADSSLSFTFTNSSNGPNLITTQTNSQALSQPIASSNVHDNFMNNEITASKIDDGNNSKPLSPGWTDQTAYNAFGITTGMFNTTTMDDVYNYLFDDEDTPPNPKKETTTPQQNKMDKLIEILNSMRNNSSDVDTKLTTFMEEAQNSTNSEEMLGEIVRTIYQKAVSDRSFAFTAAKLCDKMALFMVEGTKFRSLLLNMLQKDFTVREELQQQDVERWLGFITFLCEVFGTMRSSTGEPFRVLVCPIYTCLRELLQSQDVKEDAVLCCSMELQSTGRLLEEQLPEMMTELLASARDKMLCPSESMLTRSLLLEVIELHANSWNPLTPPITQYY
B9: Mint1 amino acids 739-837 (other, UniProt P04386 1-147, looked up)
chain: MKLLSSIEQACDICRLKKLKCSKEKPKCAKCLKNNWECRYSPKTKRSPLTRAHLTEVESRLERLEQLFLLIFPREDLDMILKMDSLQDIKALLTGLFVQDNVNKDAVTDRLASVETDMPLTLRQHRISATSSSEESSNKGQRQLTVSIVRCPPVTTVLIRRPDLRYQLGFSVQNGIICSLMRGGIAERGGVRVGHRIIEINGQSVVATPHEKIVHILSNAVGEIHMKTMPAAMYRLLTAQEQPVYI
notes: also called X11 alpha
B10: CIB amino acids 1-191 (other, UniProt P04386 1-147, looked up)
chain: MKLLSSIEQACDICRLKKLKCSKEKPKCAKCLKNNWECRYSPKTKRSPLTRAHLTEVESRLERLEQLFLLIFPREDLDMILKMDSLQDIKALLTGLFVQDNVNKDAVTDRLASVETDMPLTLRQHRISATSSSEESSNKGQRQLTVSMGGSGSRLSKELLAEYQDLTFLTKQEILLAHRRFCELLPQEQRSVESSLRAQVPFEQILSLPELKANPFKERICRVFSTSPAKDSLSFEDFLDLLSVFSDTATPDIKSHYAFRIFDFDDDGTLNREDLSRLVNCLTGEGEDTRLSASEMKQLIDNILEESDIDRDGTINLSEFQHVISRSPDFASSFKIVL
B11: stearoyl CoA desaturase (SCD2) amino acids 320-359 (other)
chain: ANFNQSGNIADSSLSFTFTNSSNGPNLITTQTNSQALSQPIASSNVHDNFMNNEITASKIDDGNNSKPLSPGWTDQTAYNAFGITTGMFNTTTMDDVYNYLFDDEDTPPNPKKETTFFIDCMAALGLAYDRKKVSKAAILARIKRTGDGNYKSG
notes: range 768-881;range 320-359; also called Delta(9) desaturase

For assay [1], the target named is T1, PN7740 amino acids 27-322. Briefly: yeast two-hybrid. An excerpt: (§1) The principles and methods of the yeast two-hybrid systems have been described in detail (Bartel and Fields, 1997). The following is thus a description of the particular procedure that was used, which was applied to all proteins.
(§2) The cDNA encoding the bait protein was generated by PCR from brain cDNA. Gene-specific primers were synthesized with appropriate tails added at their 5′ ends to allow recombination into the vector pGBTQ. The tail for the forward primer was 5′-[…]-3′ (SEQ ID NO: 1) and the tail for the reverse primer was 5′-[…]-3′ (SEQ ID NO:2). […] The new construct was selected directly in the yeast J693 for its ability to drive tryptophane synthesis (genotype of this strain: Mat α, ade2, his3, leu2, trp1, URA3::GAL1-lacZ LYS2::GAL1-HIS3 gal4del gal80del cyhR2). In these yeast cells, the bait is produced as a C-terminal fusion protein with the DNA binding domain of the transcription factor Gal4 (amino acids 1 to 147). A total human brain (person) cDNA library cloned into the yeast expression vector pACT2 was purchased from Clontech (human brain […] cDNA, cat. # HL4004AH), transformed into the yeast strain J692 (genotype of this strain: Mat α, ade2, his3, leu2, trp1, URA3::GAL1-lacZ LYS2::GAL1-HIS3 gal4del gal80del cyhR2), and selected for the ability to drive leucine synthesis. In these yeast cells, each cDNA is expressed as a fusion protein with the transcription activation domain of the transcription factor Gal4 (amino acids 768 to 881) and a 9 amino acid hemagglutinin epitope tag. J693 cells […] expressing the bait were then mated with J692 cells […] expressing proteins from the brain library. The resulting diploid yeast cells expressing proteins interacting with the bait protein were selected for the ability to synthesize tryptophane, leucine, histidine, and β-galactosidase.

Assay [2] concerns the target transthyretin (TTH) amino acids 7-148 (yeast; human, UniProt P04386 768-881; P02766 7-147). Briefly: yeast two-hybrid.
Excerpt: as §1, §2

The target in assay [3] is Focal adhesion kinase (FAK) amino acids 724-1052 (yeast, UniProt P04386 1-147; Q05397 724-1052). Briefly: yeast two-hybrid.
Excerpt: as §1, §2

The target in assay [4] is phosphodiesterase 9A (PDE-9A) amino acids 269-593 (yeast; human, UniProt P04386 768-881; O76083 269-593). The experiment in a line: yeast two-hybrid.
Excerpt: as §1, §2

The target of assay [5] is glyceraldehyde-3-phosphate dehydrogenase (GAPDH) amino acids 2-190 (yeast; human, UniProt P04386 768-881; P04406 2-190). The experiment in a line: yeast two-hybrid.
Excerpt: as §1, §2

For assay [6], the target named is T2, Focal adhesion kinase 2 (FAK2) amino acids 673-866 (yeast, UniProt P04386 1-147; Q14289 673-866).
T2 construct: also called PYK2; CAKβ
Briefly: yeast two-hybrid.
Excerpt: as §1, §2

In assay [7] the target is T3, Mint1 amino acids 447-758 (yeast, UniProt P04386 1-147; Q02410 447-758).
T3 construct: also called X11 alpha
The experiment in a line: yeast two-hybrid.
Excerpt: as §1, §2

Assay [8] has as its target T4, glutamine synthase (GS) amino acids 49-212 (yeast; human, UniProt P04386 768-881; P15104 49-212).
T4 construct: also called glutamine synthetase; glutamate ammonia ligase
Briefly: yeast two-hybrid.
Excerpt: as §1, §2

In assay [9] the target is T5, mixed lineage kinase 2 (MLK2) amino acids 305-549 (yeast; human, UniProt P04386 768-881; Q02779 305-549).
T5 construct: also called MST; MAP3K10
Briefly: yeast two-hybrid.
Excerpt: as §1, §2

The assay “CIB amino acids 1-191” deals with B10. Briefly: yeast two-hybrid, Gal4, human brain cDNA library.

For the molecule B1, in assay [1], the binding result is given as “binds”.
Consider B2, for which the binding result in assay [2] is reported as “binds”.
Regarding B3, the binding result in assay [3] is listed as “binds”.
For B4, the binding result in assay [4] is reported as “binds”.
As to B5, the binding result in assay [5] is reported as “binds”.
B6: in assay [6], the binding result is “binds”.
For B7, the binding result in assay [3] was “binds”.
For the molecule B8, the binding result in assay [7] was “binds”.
On to B9, for which, in [8], the binding result is “binds”.
Regarding B10, in [9], the binding result is reported as “binds”.
For the molecule B11, the binding result in the assay with CIB amino acids 1-191 is “binds”.
